Biological target: human complement receptor 3 (CR3) on CR3-transfected CHO cells (CHO/CR3) (human) (UniProt P11215)
Test: flow cytometry on cells

Chain of fH SCRs 18–20 fused to the Fc fragment of murine IgG2a (Fc fusion) (P08603 19-1231): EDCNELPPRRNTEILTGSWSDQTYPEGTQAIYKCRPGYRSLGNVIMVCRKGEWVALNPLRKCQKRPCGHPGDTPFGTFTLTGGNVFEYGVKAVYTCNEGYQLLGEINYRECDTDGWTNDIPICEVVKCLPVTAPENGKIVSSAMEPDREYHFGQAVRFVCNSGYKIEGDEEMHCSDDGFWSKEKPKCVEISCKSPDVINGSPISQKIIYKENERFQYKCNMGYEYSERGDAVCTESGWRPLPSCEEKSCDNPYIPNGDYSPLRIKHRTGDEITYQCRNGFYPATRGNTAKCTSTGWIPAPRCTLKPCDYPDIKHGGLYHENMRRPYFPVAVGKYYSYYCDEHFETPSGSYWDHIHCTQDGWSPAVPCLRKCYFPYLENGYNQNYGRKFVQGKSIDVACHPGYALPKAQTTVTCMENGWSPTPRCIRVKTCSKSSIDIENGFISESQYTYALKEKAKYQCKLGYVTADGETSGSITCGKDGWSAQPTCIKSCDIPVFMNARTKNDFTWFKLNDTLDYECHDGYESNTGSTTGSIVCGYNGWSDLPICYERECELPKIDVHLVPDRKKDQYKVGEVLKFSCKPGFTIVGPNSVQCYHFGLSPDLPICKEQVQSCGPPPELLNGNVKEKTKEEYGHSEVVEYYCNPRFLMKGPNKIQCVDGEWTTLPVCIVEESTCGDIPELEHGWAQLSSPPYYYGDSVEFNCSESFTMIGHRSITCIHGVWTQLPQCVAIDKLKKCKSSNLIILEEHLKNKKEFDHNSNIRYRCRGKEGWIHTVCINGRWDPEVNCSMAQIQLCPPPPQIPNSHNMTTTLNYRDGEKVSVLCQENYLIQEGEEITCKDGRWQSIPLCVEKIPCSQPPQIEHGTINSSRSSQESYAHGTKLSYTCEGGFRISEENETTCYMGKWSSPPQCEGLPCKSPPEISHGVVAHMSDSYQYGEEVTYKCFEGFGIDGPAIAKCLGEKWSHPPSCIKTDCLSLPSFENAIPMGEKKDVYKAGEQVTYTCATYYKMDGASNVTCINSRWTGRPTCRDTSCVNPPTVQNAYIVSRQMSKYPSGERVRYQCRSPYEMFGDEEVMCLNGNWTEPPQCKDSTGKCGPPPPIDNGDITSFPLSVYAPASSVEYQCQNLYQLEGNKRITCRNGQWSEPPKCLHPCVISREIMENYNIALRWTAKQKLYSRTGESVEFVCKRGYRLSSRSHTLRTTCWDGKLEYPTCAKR
Chain of fH SCRs 16–20 fused to the Fc fragment of murine IgG2a (Fc fusion) (P08603 19-1231): as above
Chain of fH SCRs 6–10 fused to the Fc fragment of murine IgG2a (Fc fusion) (P08603 19-1231): as above

Substance | fold increase in fluorescence over control levels
fH SCRs 6–10 fused to the Fc fragment of murine IgG2a (Fc fusion) | 3 fold
fH SCRs 16–20 fused to the Fc fragment of murine IgG2a (Fc fusion) | 15 fold
fH SCRs 18–20 fused to the Fc fragment of murine IgG2a (Fc fusion) | 30 fold

Reference: paper PMC2944003
